We go through 4 molecules from paper PMC8683410 (Translational Psychiatry, 2021).

Assay [1] deals with T1, His6-tagged human DISC1 C-region (residues 691-836) (human), Q9NRI5.
T1 chain: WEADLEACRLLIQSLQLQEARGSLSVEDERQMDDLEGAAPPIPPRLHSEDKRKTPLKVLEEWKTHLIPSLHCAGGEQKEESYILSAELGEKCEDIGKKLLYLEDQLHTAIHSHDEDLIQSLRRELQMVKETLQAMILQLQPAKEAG
Briefly: negative-stain transmission electron microscopy; 10 µM protein on carbon-coated copper grids, 1% uranyl acetate; 2D classification and 3D reconstruction (RELION). The note with it: remark: other sources report otherwise.

In assay [2] the target is T1, His6-tagged human DISC1 C-region …. Briefly: dynamic light scattering; critical concentration of C-region monomers/oligomers in equilibrium with the fibril suspension, taken as the detection limit of the instrument; 1D crystallization model (KF = 1/[C]). The note with it: remark: other sources report otherwise.
Assay [3] has the same target. Briefly: dynamic light scattering; His6-C-region, 10-90 µM at 37 °C; samples centrifuged at 21,000 x g before measurement. The note with it: remark: other sources report otherwise.
Assay [4] has the same target. The experiment in a line: ITC; no titration: heat flow of the spontaneous association of the protein solution monitored in the cell (iTC-200, 300 rpm); 10-50 µM at 37 °C, 10 µM at 20-60 °C; dH from the peak area normalised to the protein amount. The note with it: remark: other sources report otherwise. A general note: Isothermal titration calorimetry measures the heat released or taken up as one component is titrated into another.

The target of assay [5] is T2, lissencephaly 1 (LIS1) (UniProt P43034 1-410).
T2 construct: lissencephaly 1 (LIS1); source: E. coli C43 (DE3), purified (Ni2+-NTA, Superdex 200 SEC)
T2 sequence (looked up): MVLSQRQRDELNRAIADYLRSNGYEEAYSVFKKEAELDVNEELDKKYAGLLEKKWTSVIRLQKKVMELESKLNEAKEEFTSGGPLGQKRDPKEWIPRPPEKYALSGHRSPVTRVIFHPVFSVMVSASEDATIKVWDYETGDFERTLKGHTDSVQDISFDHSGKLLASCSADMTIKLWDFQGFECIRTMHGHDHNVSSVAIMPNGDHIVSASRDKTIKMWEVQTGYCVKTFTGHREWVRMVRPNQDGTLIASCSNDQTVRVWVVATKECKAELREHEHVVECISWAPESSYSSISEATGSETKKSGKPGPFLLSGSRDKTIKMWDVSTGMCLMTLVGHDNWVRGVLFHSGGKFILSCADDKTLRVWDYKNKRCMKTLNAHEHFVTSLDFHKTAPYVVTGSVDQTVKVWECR
Briefly: SPR; oligomeric/fibrillar C-region (His-C-region incubated at 4 °C for two weeks, MBP-C-region for two months) amine-coupled to a CM5 chip (250 RU); analytes 0.75-10 µM without regeneration; 25 °C, PBS pH 7.4; equilibrium responses fitted with Hill's equation; apparent affinities. The note with it: both partners purified. In general terms: Surface plasmon resonance follows binding to a sensor surface in real time, without labels.

The target of assay [6] is T3, NDE-like 1 (NDEL1) (UniProt Q9GZM8 1-345). The description is as above. The conditions noted are these: both partners purified.
T3 sequence (Q9GZM8 whole entry, the tested form may be a part): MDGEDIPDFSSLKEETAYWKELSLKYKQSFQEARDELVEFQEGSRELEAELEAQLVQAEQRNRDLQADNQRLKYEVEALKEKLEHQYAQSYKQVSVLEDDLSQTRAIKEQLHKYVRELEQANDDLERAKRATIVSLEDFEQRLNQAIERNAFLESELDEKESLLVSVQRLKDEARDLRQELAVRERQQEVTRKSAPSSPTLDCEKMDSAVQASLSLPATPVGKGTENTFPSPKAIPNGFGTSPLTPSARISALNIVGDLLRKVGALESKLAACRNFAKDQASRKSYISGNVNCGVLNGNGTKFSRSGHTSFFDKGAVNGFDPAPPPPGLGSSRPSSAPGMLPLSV
Assay [7] has as its target T4, MBP-His6-fused human DISC1 C-region (residues 691-836) (human), Q9NRI5.
T4 chain: T1 chain
The experiment in a line: dynamic light scattering; MBP-tagged C-region in solution at different temperatures (Fig. S1). The note with it: remark: other sources report otherwise.

Assay [8] addresses T3, NDE-like 1 (NDEL1). The experiment in a line: SPR; freshly prepared MBP-C-region (representing the monomer) amine-coupled to a CM5 chip (250 RU); analytes 0.75-10 µM without regeneration; 25 °C, PBS pH 7.4 (20 mM Na-phosphate, 150 mM NaCl); equilibrium responses fitted with Hill's equation. The conditions noted are these: both partners purified.
Assay [9] addresses T2, lissencephaly 1 (LIS1). Described as above. The conditions noted are these: both partners purified.
Assay [10] concerns the target T3, NDE-like 1 (NDEL1). Described as above. The conditions noted are these: both partners purified. This is another data set of the same source.

Several values for one entry are separate records, joined by “and”; a condition that tells them apart may be missing. Equal values may be shown once.

B1: His6-tagged human DISC1 C-region (residues 691-836), Q9NRI5 691-836 (domain or fragment)
chain: T1 chain
As to B1, the stoichiometry N in assay [1] was 4 and 5 and 6; in [3] it was 4. The critical concentration (1/KF of fibril formation) in assay [2] was determined as 750 nM. For the same molecule, in [4], the dH was -71.2 kcal/mol.

B2: His6-tagged human DISC1 C-region (residues 691-836) (domain or fragment, UniProt Q9NRI5 691-836, looked up)
chain: T1 chain
notes: disrupted in schizophrenia 1 (DISC1), human, C-region, residues 691-836 of full-length human DISC1; Vector pESPRIT002; Theoretical mass of the tagged protein 19.4 kDa; for SPR it was incubated at 4 °C for two weeks (oligomer/fibril); also called His6-C-region; His-C-region; source: E. coli BL21 (DE3) pLysE T1R, purified (Co2+-NTA, Superdex 200 SEC); not shown: His6, N-terminal, kept
As to B2, the Kd with lissencephaly 1 (LIS1) [5] amounted to 0.031 µM; in the assay with NDE-like 1 (NDEL1) [6], 13 µM.

B3: MBP-His6-fused human DISC1 C-region (residues 691-836), Q9NRI5 691-836 (domain or fragment)
chain: T1 chain
For B3, the stoichiometry N in assay [7] stood at 4.

B4: MBP-His6-fused human DISC1 C-region (residues 691-836) (domain or fragment, UniProt Q9NRI5 691-836, looked up)
chain: T1 chain
notes: disrupted in schizophrenia 1 (DISC1), human, C-region, residues 691-836 of full-length human DISC1; Cloned in pET-15b; Used freshly prepared to represent the monomer, and after two months at 4 °C as oligomer/fibril, in SPR; also called MBP-C-region; MBP-C region; source: E. coli (DE3) C43, purified (Co2+-NTA, amylose column); not shown: MBP, N-terminal, kept; His6, N-terminal, kept
As to B4, the Kd with lissencephaly 1 (LIS1) [5] worked out at 0.031 µM; with NDE-like 1 (NDEL1) [6], 14 µM; in the assay with NDE-like 1 (NDEL1) [8] it was 28 µM; in the assay with lissencephaly 1 (LIS1) [9], 0.071 µM; with NDE-like 1 (NDEL1) [10], 20 µM.

The term stoichiometry N denotes the number of molecules, sites or subunits per partner or assembly.
